Data on 7 molecules can be found in US20220041721A1 (WUHAN YZY BIOPHARMA, published 2022).

Sequences and labels used below:
B1: Y150-F8-8 (bispecific antibody, human IgG1, kappa)
scFv: QVQLVESGGGVVQPGRSLRLSCAASGFTFSTYAMNWVRQAPGKGLEWVARIRSKYNNYATYYADSVKDRFTISRDDSKNTLYLQMNSLRAEDTAVYYCARHGNFGNSYVSWFAYWGQGTLVTVSSGGGGSGGGGSGGGGSQTVVTQEPSLTVSPGGTVTLTCRSSTGAVTTSNYANWVQQKPGQAPRGLIGGTNKRAPGVPARFSGSLLGGKAALTLSGVQPEDEAEYYCALWYSNLWVFGGGTKVEIKGRGRGSDKTHTCPPSPAPPVAGPSVFLFPPKPKDTLMISRTPEVTCVVVDVSHEDPEVQFNWYVDGVEVHNAKTKPREEQFNSTFRVVSVLTVVHQDWLNGKEYKCKVSNKGLPAPIEKTISKTKGQPREPQVCTLPPSRDELTKNQVSLSCAVKGFYPSDIAVEWESNGQPENNYKTTPPVLDSDGSFFLVSKLTVDKSRWQQGNVFSCSVMHEALHNHYTQKSLSLSPGK
heavy: EVQLLESGGGLVQPGGSLRLSCAVSGFTFNSFAMSWVRQAPGKGLEWVSAISGSGGGTYYADSVKGRFTISRDNSKNTLYLQMNSLRAEDTAVYFCAKDKILWFGEPVFDYWGQGTLVTVSSASTKGPSVFPLAPSSKSTSGGTAALGCLVKDYFPEPVTVSWNSGALTSGVHTFPAVLQSSGLYSLSSVVTVPSSSLGTQTYICNVNHKPSNTKVDKKVEPKSCDKTHTCPPSPAPPVAGPSVFLFPPKPKDTLMISRTPEVTCVVVDVSHEDPEVQFNWYVDGVEVHNAKTKPREEQFNSTFRVVSVLTVVHQDWLNGKEYKCKVSNKGLPAPIEKTISKTKGQPREPQVYTLPPCRDELTKNQVSLWCLVKGFYPSDIAVEWESNGQPENNYKTTPPVLDSDGSFFLYSKLTVDKSRWQQGNVFSCSVMHEALHNHYTQKSLSLSPGK
light: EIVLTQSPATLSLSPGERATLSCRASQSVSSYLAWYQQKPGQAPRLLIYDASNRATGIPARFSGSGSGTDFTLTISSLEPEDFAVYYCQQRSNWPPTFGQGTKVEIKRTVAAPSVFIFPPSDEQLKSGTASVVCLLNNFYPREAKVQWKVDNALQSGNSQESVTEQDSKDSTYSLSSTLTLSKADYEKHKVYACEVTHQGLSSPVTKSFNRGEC
notes: Anti-CD38 (Dara) Fab arm and anti-CD3 scFv (VH2a/VL5)-Fc fusion peptide, CH2 SG2
B2: CT-F3 (bispecific antibody, human IgG1, kappa)
scFv: EVQLVESGGGLVQPGGSLRLSCAASGFTFSTYAMNWVRQAPGKGLEWVARIRSKYNNYATYYADSVKDRFTISRDDSKNTLYLQMNSLRAEDTAVYYCARHGNFGNSYVSWFAYWGQGTMVTVSSGGGGSGGGGSGGGGSQAVVTQEPSLTVSPGGTVTLTCGSSTGAVTTSNYANWVQQKPGQAPRGLIGGTNKRAPGVPARFSGSLLGGKAALTLSGAQPEDEAEYYCALWYSNLWVFGGGTKLEIKGGGGSDKTHTCPPCPAPEFEGGPSVFLFPPKPKDTLMISRTPEVTCVVVDVSHEDPEVKFNWYVDGVEVHNAKTKPREEQYNSTYRVVSVLTVLHQDWLNGKEYKCKVSNKALPASIEKTISKAKGQPREPQVCTLPPSRDELTKNQVSLSCAVKGFYPSDIAVEWESNGQPENNYKTTPPVLDSDGSFFLVSKLTVDKSRWQQGNVFSCSVMHEALHNHYTQKSLSLSPGK
heavy: EVQLLESGGGLVQPGGSLRLSCAVSGFTFNSFAMSWVRQAPGKGLEWVSAISGSGGGTYYADSVKGRFTISRDNSKNTLYLQMNSLRAEDTAVYFCAKDKILWFGEPVFDYWGQGTLVTVSSASTKGPSVFPLAPSSKSTSGGTAALGCLVKDYFPEPVTVSWNSGALTSGVHTFPAVLQSSGLYSLSSVVTVPSSSLGTQTYICNVNHKPSNTKVDKKVEPKSCDKTHTCPPCPAPEFEGGPSVFLFPPKPKDTLMISRTPEVTCVVVDVSHEDPEVKFNWYVDGVEVHNAKTKPREEQYNSTYRVVSVLTVLHQDWLNGKEYKCKVSNKALPASIEKTISKAKGQPREPQVYTLPPCRDELTKNQVSLWCLVKGFYPSDIAVEWESNGQPENNYKTTPPVLDSDGSFFLYSKLTVDKSRWQQGNVFSCSVMHEALHNHYTQKSLSLSPGK
light: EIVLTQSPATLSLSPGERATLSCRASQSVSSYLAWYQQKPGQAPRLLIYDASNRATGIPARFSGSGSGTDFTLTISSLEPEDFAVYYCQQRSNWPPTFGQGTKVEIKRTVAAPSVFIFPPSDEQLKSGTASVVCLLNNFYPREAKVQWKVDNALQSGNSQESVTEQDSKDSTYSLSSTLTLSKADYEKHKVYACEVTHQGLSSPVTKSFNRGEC
notes: Comparative: anti-CD38 (Dara) Fab arm and anti-CD3 scFv (CD3 antibody 1 VH, CD3 antibody 2 VL)-Fc fusion peptide
B3: Y150-F8-7 (bispecific antibody, human IgG1, kappa, N297A)
scFv: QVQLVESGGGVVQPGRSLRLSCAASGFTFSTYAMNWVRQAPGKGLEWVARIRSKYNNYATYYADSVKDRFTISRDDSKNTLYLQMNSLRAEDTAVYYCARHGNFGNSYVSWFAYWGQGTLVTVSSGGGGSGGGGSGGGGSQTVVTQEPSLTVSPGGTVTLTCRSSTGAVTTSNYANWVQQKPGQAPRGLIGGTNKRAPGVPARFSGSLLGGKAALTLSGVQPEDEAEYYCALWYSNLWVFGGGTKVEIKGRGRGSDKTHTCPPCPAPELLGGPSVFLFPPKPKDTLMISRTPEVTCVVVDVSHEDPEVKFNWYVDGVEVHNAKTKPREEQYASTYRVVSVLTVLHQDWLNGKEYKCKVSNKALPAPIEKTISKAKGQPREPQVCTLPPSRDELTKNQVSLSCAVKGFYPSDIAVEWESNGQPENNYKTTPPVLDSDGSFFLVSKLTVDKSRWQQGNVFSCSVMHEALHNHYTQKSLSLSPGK
heavy: EVQLLESGGGLVQPGGSLRLSCAVSGFTFNSFAMSWVRQAPGKGLEWVSAISGSGGGTYYADSVKGRFTISRDNSKNTLYLQMNSLRAEDTAVYFCAKDKILWFGEPVFDYWGQGTLVTVSSASTKGPSVFPLAPSSKSTSGGTAALGCLVKDYFPEPVTVSWNSGALTSGVHTFPAVLQSSGLYSLSSVVTVPSSSLGTQTYICNVNHKPSNTKVDKKVEPKSCDKTHTCPPCPAPELLGGPSVFLFPPKPKDTLMISRTPEVTCVVVDVSHEDPEVKFNWYVDGVEVHNAKTKPREEQYASTYRVVSVLTVLHQDWLNGKEYKCKVSNKALPAPIEKTISKAKGQPREPQVYTLPPCRDELTKNQVSLWCLVKGFYPSDIAVEWESNGQPENNYKTTPPVLDSDGSFFLYSKLTVDKSRWQQGNVFSCSVMHEALHNHYTQKSLSLSPGK
light: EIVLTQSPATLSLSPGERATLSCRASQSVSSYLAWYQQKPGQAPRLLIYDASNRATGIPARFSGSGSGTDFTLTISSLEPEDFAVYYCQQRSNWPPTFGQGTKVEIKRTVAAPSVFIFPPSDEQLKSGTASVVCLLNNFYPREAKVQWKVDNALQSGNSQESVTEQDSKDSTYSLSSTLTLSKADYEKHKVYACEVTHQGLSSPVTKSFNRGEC
notes: Anti-CD38 (Dara) Fab arm and anti-CD3 scFv (VH2a/VL5)-Fc fusion peptide, CH2 N297A
B4: Y150-F8-6 (bispecific antibody, human IgG1, kappa)
scFv: QVQLVESGGGVVQPGRSLRLSCAASGFTFSTYAMNWVRQAPGKGLEWVARIRSKYNNYATYYADSVKDRFTISRDDSKNTLYLQMNSLRAEDTAVYYCVRHGNFGNSYVSWFAYWGQGTLVTVSSGGGGSGGGGSGGGGSQTVVTQEPSLTVSPGGTVTLTCRSSTGAVTTSNYANWVQQKPGQAPRGLIGGTNKRAPGVPARFSGSLLGGKAALTLSGVQPEDEAEYYCALWYSNLWVFGGGTKVEIKGGGGSDKTHTCPPCPAPEFEGGPSVFLFPPKPKDTLMISRTPEVTCVVVDVSHEDPEVKFNWYVDGVEVHNAKTKPREEQYNSTYRVVSVLTVLHQDWLNGKEYKCKVSNKALPASIEKTISKAKGQPREPQVCTLPPSRDELTKNQVSLSCAVKGFYPSDIAVEWESNGQPENNYKTTPPVLDSDGSFFLVSKLTVDKSRWQQGNVFSCSVMHEALHNHYTQKSLSLSPGK
heavy: EVQLLESGGGLVQPGGSLRLSCAVSGFTFNSFAMSWVRQAPGKGLEWVSAISGSGGGTYYADSVKGRFTISRDNSKNTLYLQMNSLRAEDTAVYFCAKDKILWFGEPVFDYWGQGTLVTVSSASTKGPSVFPLAPSSKSTSGGTAALGCLVKDYFPEPVTVSWNSGALTSGVHTFPAVLQSSGLYSLSSVVTVPSSSLGTQTYICNVNHKPSNTKVDKKVEPKSCDKTHTCPPCPAPEFEGGPSVFLFPPKPKDTLMISRTPEVTCVVVDVSHEDPEVKFNWYVDGVEVHNAKTKPREEQYNSTYRVVSVLTVLHQDWLNGKEYKCKVSNKALPASIEKTISKAKGQPREPQVYTLPPCRDELTKNQVSLWCLVKGFYPSDIAVEWESNGQPENNYKTTPPVLDSDGSFFLYSKLTVDKSRWQQGNVFSCSVMHEALHNHYTQKSLSLSPGK
light: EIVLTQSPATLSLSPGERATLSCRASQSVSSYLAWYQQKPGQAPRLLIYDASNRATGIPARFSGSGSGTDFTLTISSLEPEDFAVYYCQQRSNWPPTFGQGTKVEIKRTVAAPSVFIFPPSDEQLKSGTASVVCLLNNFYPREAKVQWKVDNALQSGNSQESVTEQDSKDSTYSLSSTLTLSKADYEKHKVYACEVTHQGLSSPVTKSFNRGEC
notes: also called Y150-8-6
B5: Y150-F8-5 (bispecific antibody, human IgG1, kappa)
scFv: QVQLVESGGGVVQPGRSLRLSCAASGFTFSTYAMNWVRQAPGKGLEWVARIRSKYNNYATYYADSVKDRFTISRDDSKNTLYLQMNSLRAEDTAVYYCARHGNFGNSYVSWFAYWGQGTLVTVSSGGGGSGGGGSGGGGSQTVVTQEPSLTVSPGGTVTLTCRSSTGAVTTSNYANWVQQKPGQAPRGLIGGTNKRAPGVPARFSGSLLGGKAALTLSGVQPEDEAEYYCALWYSNLWVFGGGTKVEIKGGGGSDKTHTCPPCPAPEFEGGPSVFLFPPKPKDTLMISRTPEVTCVVVDVSHEDPEVKFNWYVDGVEVHNAKTKPREEQYNSTYRVVSVLTVLHQDWLNGKEYKCKVSNKALPASIEKTISKAKGQPREPQVCTLPPSRDELTKNQVSLSCAVKGFYPSDIAVEWESNGQPENNYKTTPPVLDSDGSFFLVSKLTVDKSRWQQGNVFSCSVMHEALHNHYTQKSLSLSPGK
heavy: EVQLLESGGGLVQPGGSLRLSCAVSGFTFNSFAMSWVRQAPGKGLEWVSAISGSGGGTYYADSVKGRFTISRDNSKNTLYLQMNSLRAEDTAVYFCAKDKILWFGEPVFDYWGQGTLVTVSSASTKGPSVFPLAPSSKSTSGGTAALGCLVKDYFPEPVTVSWNSGALTSGVHTFPAVLQSSGLYSLSSVVTVPSSSLGTQTYICNVNHKPSNTKVDKKVEPKSCDKTHTCPPCPAPEFEGGPSVFLFPPKPKDTLMISRTPEVTCVVVDVSHEDPEVKFNWYVDGVEVHNAKTKPREEQYNSTYRVVSVLTVLHQDWLNGKEYKCKVSNKALPASIEKTISKAKGQPREPQVYTLPPCRDELTKNQVSLWCLVKGFYPSDIAVEWESNGQPENNYKTTPPVLDSDGSFFLYSKLTVDKSRWQQGNVFSCSVMHEALHNHYTQKSLSLSPGK
light: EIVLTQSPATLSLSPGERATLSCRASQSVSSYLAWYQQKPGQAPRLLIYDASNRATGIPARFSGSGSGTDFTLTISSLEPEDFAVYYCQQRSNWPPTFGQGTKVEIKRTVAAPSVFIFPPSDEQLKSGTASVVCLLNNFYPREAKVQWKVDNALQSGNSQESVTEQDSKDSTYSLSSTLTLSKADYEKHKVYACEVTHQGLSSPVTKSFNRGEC
notes: also called Y150-8-5
B6: CT-F1 (bispecific antibody, human IgG1, kappa)
scFv: EVQLVESGGGLVQPGGSLRLSCAASGFTFSTYAMNWVRQAPGKGLEWVARIRSKYNNYATYYADSVKDRFTISRDDSKNTLYLQMNSLRAEDTAVYYCARHGNFGNSYVSWFAYWGQGTMVTVSSGGGGSGGGGSGGGGSQAVVTQEPSLTVSPGGTVTLTCRSSTGAVTTSNYANWVQQKPGQAPRGLIGGTNKRAPGTPARFSGSLLGGKAALTLSGVQPEDEAEYYCALWYSNLWVFGGGTKLTVLGGGGSDKTHTCPPCPAPEFEGGPSVFLFPPKPKDTLMISRTPEVTCVVVDVSHEDPEVKFNWYVDGVEVHNAKTKPREEQYNSTYRVVSVLTVLHQDWLNGKEYKCKVSNKALPASIEKTISKAKGQPREPQVCTLPPSRDELTKNQVSLSCAVKGFYPSDIAVEWESNGQPENNYKTTPPVLDSDGSFFLVSKLTVDKSRWQQGNVFSCSVMHEALHNHYTQKSLSLSPGK
heavy: EVQLLESGGGLVQPGGSLRLSCAVSGFTFNSFAMSWVRQAPGKGLEWVSAISGSGGGTYYADSVKGRFTISRDNSKNTLYLQMNSLRAEDTAVYFCAKDKILWFGEPVFDYWGQGTLVTVSSASTKGPSVFPLAPSSKSTSGGTAALGCLVKDYFPEPVTVSWNSGALTSGVHTFPAVLQSSGLYSLSSVVTVPSSSLGTQTYICNVNHKPSNTKVDKKVEPKSCDKTHTCPPCPAPEFEGGPSVFLFPPKPKDTLMISRTPEVTCVVVDVSHEDPEVKFNWYVDGVEVHNAKTKPREEQYNSTYRVVSVLTVLHQDWLNGKEYKCKVSNKALPASIEKTISKAKGQPREPQVYTLPPCRDELTKNQVSLWCLVKGFYPSDIAVEWESNGQPENNYKTTPPVLDSDGSFFLYSKLTVDKSRWQQGNVFSCSVMHEALHNHYTQKSLSLSPGK
light: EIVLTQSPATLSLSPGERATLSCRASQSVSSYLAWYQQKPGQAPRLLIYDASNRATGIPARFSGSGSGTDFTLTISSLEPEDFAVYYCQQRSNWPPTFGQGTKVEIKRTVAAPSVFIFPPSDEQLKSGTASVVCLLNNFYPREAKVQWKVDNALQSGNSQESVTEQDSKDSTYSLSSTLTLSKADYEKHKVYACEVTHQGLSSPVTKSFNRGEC
notes: Comparative: anti-CD38 (Dara) Fab arm and anti-CD3 scFv (CD3 antibody 1 VH/VL)-Fc fusion peptide
B7: CT-F2 (bispecific antibody, human IgG1, kappa)
scFv: EVQLVESGGGLVQPGGSLRLSCAASGFTFNTYAMNWVRQAPGKGLEWVGRIRSKYNNYATYYADSVKGRFTISRDDSKNTLYLQMNSLRAEDTAVYYCARHGNFGNSYVSWFAYWGQGTLVTVSSGGGGSGGGGSGGGGSQAVVTQEPSLTVSPGGTVTLTCGSSTGAVTTSNYANWVQQKPGQAPRGLIGGTNKRAPGVPARFSGSLLGGKAALTLSGAQPEDEAEYYCALWYSNLWVFGGGTKLEIKGGGGSDKTHTCPPCPAPEFEGGPSVFLFPPKPKDTLMISRTPEVTCVVVDVSHEDPEVKFNWYVDGVEVHNAKTKPREEQYNSTYRVVSVLTVLHQDWLNGKEYKCKVSNKALPASIEKTISKAKGQPREPQVCTLPPSRDELTKNQVSLSCAVKGFYPSDIAVEWESNGQPENNYKTTPPVLDSDGSFFLVSKLTVDKSRWQQGNVFSCSVMHEALHNHYTQKSLSLSPGK
heavy: EVQLLESGGGLVQPGGSLRLSCAVSGFTFNSFAMSWVRQAPGKGLEWVSAISGSGGGTYYADSVKGRFTISRDNSKNTLYLQMNSLRAEDTAVYFCAKDKILWFGEPVFDYWGQGTLVTVSSASTKGPSVFPLAPSSKSTSGGTAALGCLVKDYFPEPVTVSWNSGALTSGVHTFPAVLQSSGLYSLSSVVTVPSSSLGTQTYICNVNHKPSNTKVDKKVEPKSCDKTHTCPPCPAPEFEGGPSVFLFPPKPKDTLMISRTPEVTCVVVDVSHEDPEVKFNWYVDGVEVHNAKTKPREEQYNSTYRVVSVLTVLHQDWLNGKEYKCKVSNKALPASIEKTISKAKGQPREPQVYTLPPCRDELTKNQVSLWCLVKGFYPSDIAVEWESNGQPENNYKTTPPVLDSDGSFFLYSKLTVDKSRWQQGNVFSCSVMHEALHNHYTQKSLSLSPGK
light: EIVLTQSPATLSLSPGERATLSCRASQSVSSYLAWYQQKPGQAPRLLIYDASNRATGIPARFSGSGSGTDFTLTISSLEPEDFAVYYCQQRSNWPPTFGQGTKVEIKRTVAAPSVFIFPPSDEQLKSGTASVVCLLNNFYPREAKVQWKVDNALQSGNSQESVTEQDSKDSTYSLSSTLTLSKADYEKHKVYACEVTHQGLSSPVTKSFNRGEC
notes: Comparative: anti-CD38 (Dara) Fab arm and anti-CD3 scFv (CD3 antibody 2 VH/VL)-Fc fusion peptide

The target of this assay is T1, monkey CD3 (monkey).
T1 construct: whole, on cells; also called CD3 on monkey CD3 positive T cells
The experiment in a line: flow cytometry on monkey CD3 positive T cells. On the technique in general: Flow cytometry measures light scatter and fluorescence of single cells or particles in a stream.
In the case of B1, the EC50 worked out at 159 nM.
The figure for B2 is 229 nM.
The same measure for B3: 142 nM; for B4: 29.2 nM.
Molecule B5 gave an EC50 of 291 nM.
B6: the EC50 stood at 347 nM.
The figure for B7 is 174 nM.

The term EC50 denotes the midpoint of the concentration-response curve.
